Assay results: patent US20090111745A1

Target: human serum albumin (human), P02768
Assay: sandwich ELISA, HSA coated at 10 µg/ml, conjugate at 1 µM, detection with anti-FITC antibody

OD600: 0.38 OD600
B1: DOM7h-8cys/FITC conjugate (protein)
VL: DIQMTQSPSSLSASVGDRVTITCRASQSISSYLNWYQQKPGKAPKLLIYRNSPLQSGVPSRFSGSGSGTDFTLTISSLQPEDFATYYCQQTYRVPPTFGQGTKVEIKC
modifications: not checked
